{
  "source": "patent US20100233758A1",
  "target": "glycoprotein D of HSV-1 KOS/tk12 (wild type HSV-1 KOS carrying a lacZ reporter gene) (herpes simplex virus 1 (HSV-1 KOS))",
  "experiment": "cell-based or functional assay",
  "data": [
    {"substance": "recombinant sHveA102 protein (receptor)", "values": [
      {"measurement": "percentage of cells infected with the virus (X-gal staining)", "value": 70, "unit": "%"}
    ]}
  ]
}
